Experimental data as given in IntAct's records for PubMed 15078334.

B1: Guanine nucleotide-binding protein alpha-1 subunit (Oryza sativa subsp. japonica (Rice)), Q0DJ33 (parent)
chain: MGSSCSRSHSLSEAETTKNAKSADIDRRILQETKAEQHIHKLLLLGAGESGKSTIFKQIKLLFQTGFDEAELRSYTSVIHANVYQTIKILYEGAKELSQVESDSSKYVISPDNQEIGEKLSDIDGRLDYPLLNKELVLDVKRLWQDPAIQETYLRGSILQLPDCAQYFMENLDRLAEAGYVPTKEDVLYARVRTNGVVQIQFSPVGENKRGGEVYRLYDVGGQRNERRKWIHLFEGVNAVIFCAAISEYDQMLFEDETKNRMMETKELFDWVLKQRCFEKTSFILFLNKFDIFEKKIQKVPLSVCEWFKDYQPIAPGKQEVEHAYEFVKKKFEELYFQSSKPDRVDRVFKIYRTTALDQKLVKKTFKLIDESMRRSREGT
partner: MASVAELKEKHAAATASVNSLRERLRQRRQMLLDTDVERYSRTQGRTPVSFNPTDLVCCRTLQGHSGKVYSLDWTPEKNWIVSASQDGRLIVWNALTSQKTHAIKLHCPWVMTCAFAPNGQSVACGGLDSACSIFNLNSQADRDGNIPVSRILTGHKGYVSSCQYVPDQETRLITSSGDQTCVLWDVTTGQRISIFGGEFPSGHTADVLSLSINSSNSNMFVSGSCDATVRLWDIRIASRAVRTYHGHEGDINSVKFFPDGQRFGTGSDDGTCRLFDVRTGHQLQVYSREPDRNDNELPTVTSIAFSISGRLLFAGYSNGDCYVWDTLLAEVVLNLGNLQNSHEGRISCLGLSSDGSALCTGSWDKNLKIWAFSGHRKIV

Variants of: B1
Conditions: with gbb_orysj RGB1, Q40687

| effect of a mutation on the interaction | Variant |
| --- | --- |
| disrupting interaction | MGSSCSRSHSLSEAETTKNAKSADIDRRILQETKAEQHIHKLLLLGAGESGKSTIFKQIKLLFQTGFDEAELRSYTSVIHANVYQTIKILYEGAKELSQVESDSSKYVISPDNQEIGEKLSDIDGRLDYPLLNKELVLDVKRLWQDPAIQETYLRGSILQLPDCAQYFMENLDRLAEAGYVPTKEDVLYARVRTNGVVQIQFSPVGENKRGGEVYRLYDVGGLRNERRKWIHLFEGVNAVIFCAAISEYDQMLFEDETKNRMMETKELFDWVLKQRCFEKTSFILFLNKFDIFEKKIQKVPLSVCEWFKDYQPIAPGKQEVEHAYEFVKKKFEELYFQSSKPDRVDRVFKIYRTTALDQKLVKKTFKLIDESMRRSREGT [Q223L] |
